Data set [1] deals with Su(H) WT (Drosophila melanogaster). As to the kind of experiment: ITC. Particulars: ITC: 50 mM sodium phosphate pH 6.5, 150 mM NaCl, 10 C; 10 uM Su(H) in cell, 100 uM DNA in syringe; one-site model.
Data set [2] deals with T1, Recombinant Su(H) (98-523) (Drosophila melanogaster, UniProt P28159 98-523).
T1 construct: Suppressor of Hairless (Su(H)), the Drosophila CSL, residues 98-523; Wild-type parent of the NBM mutant in the ITC experiment; also called Suppressor of Hairless; CSL; source: bacteria, purified (glutathione-Sepharose, cation exchange, size exclusion chromatography)
As to the kind of experiment: ITC; MicroCal VP-ITC; typically 50 μM Su(H) in the syringe and 5 μM NICD in the cell; 25°C; 50 mM sodium phosphate pH 6.5, 150 mM NaCl; one-site binding model. Particulars: both partners purified.

T1 sequence (P28159 98-523): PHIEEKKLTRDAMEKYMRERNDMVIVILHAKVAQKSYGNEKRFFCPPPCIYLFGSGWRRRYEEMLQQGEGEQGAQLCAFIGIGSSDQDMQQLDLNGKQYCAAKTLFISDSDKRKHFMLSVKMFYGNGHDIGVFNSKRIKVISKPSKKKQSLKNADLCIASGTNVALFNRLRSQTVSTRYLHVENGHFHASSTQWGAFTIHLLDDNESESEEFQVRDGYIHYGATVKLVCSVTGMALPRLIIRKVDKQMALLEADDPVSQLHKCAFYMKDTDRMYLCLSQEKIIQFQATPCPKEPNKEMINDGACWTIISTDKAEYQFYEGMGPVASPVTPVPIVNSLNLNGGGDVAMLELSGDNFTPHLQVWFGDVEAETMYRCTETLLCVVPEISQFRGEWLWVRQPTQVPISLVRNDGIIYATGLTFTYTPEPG

Broadly, the Kd is the constant that tells how readily two partners part at equilibrium. The molecule “ITC DNA (Su(H) binding DNA, sequence not given)” showed a Kd in data set [1] of 460 nM.

B1: Recombinant NICD (1762-2142) (domain or fragment, Drosophila melanogaster, UniProt P07207 1762-2142, looked up)
chain: MVLSTQRKRAHGVTWFPEGFRAPAAVMSRRRRDPHGQEMRNLNKQVAMQSQGVGQPGAHWSDDESDMPLPKRQRSDPVSGVGLGNNGGYASDHTMVSEYEEADQRVWSQAHLDVVDVRAIMTPPAHQDGGKHDVDARGPCGLTPLMIAAVRGGGLDTGEDIENNEDSTAQVISDLLAQGAELNATMDKTGETSLHLAARFARADAAKRLLDAGADANCQDNTGRTPLHAAVAADAMGVFQILLRNRATNLNARMHDGTTPLILAARLAIEGMVEDLITADADINAADNSGKTALHWAAAVNNTEAVNILLMHHANRDAQDDKDETPLFLAAREGSYEACKALLDNFANREITDHMDRLPRDVASERLHHDIVRLLDEHVPR
notes: Notch intracellular domain (NICD), Drosophila Notch, residues 1762-2142; also called Notch intracellular domain; source: bacteria, purified (glutathione-Sepharose, cation exchange, size exclusion chromatography)
As to B1, the binding result in data set [2] is recorded as “binds”.

The record behind these values is article PMC5855320, “Activation of the Notch Signaling Pathway In Vivo Elicits Changes in CSL Nuclear Dynamics” (Developmental Cell, 2018).
